Nine molecules from patent US20230203146A1 (Boehringer Ingelheim, published 2023) can be followed below.

Assay [1] addresses T1, FLAG-tagged recombinant human Ang1 (Alexis Biochemicals) (human, UniProt Q15389 20-498, limits assumed).
T1 construct: Bought reagent; also called hAng1; FLAG-hAng1
T1 sequence (looked up): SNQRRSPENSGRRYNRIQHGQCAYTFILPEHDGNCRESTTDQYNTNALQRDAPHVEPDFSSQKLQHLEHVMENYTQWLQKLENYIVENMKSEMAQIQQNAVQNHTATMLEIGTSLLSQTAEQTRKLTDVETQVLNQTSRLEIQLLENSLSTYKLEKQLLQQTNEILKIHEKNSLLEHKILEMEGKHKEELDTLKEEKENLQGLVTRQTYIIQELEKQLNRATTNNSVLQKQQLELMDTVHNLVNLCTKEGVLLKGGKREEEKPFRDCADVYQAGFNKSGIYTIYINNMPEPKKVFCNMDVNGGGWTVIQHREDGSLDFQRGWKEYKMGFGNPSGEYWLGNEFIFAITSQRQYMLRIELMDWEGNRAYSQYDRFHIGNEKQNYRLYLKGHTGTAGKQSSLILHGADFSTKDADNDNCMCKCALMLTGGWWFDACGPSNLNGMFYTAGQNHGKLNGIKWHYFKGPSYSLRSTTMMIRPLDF
Kind of assay: competition ELISA, periplasmic extract, FLAG-hAng1 on hTie2/Fc. The procedure:
(§1) In brief, human Tie2/Fc chimera (R&D Systems, Minneapolis, Minn., USA) is biotinylated using N-hydroxysulfosuccinimide ester of biotin (Thermo Fisher Scientific, Rockford, Ill., USA). […] To this mixture, the Acceptor beads and 0.3 nM biotinylated human Tie2/Fc chimeras are added and further incubated for 2 hours at room temperature. Finally, streptavidin conjugated Donor beads (Perkin Elmer, Waltham, Mass., US) are added and the mixture is incubated for an additional 2 hours at room temperature. Assay buffer is PBS+0.03% Tween-20+0.1% BSA. Fluorescence is measured using the Envision Multilabel Plate reader (Perkin Elmer, Waltham, Mass., USA) using an excitation wavelength of 680 nm and an emission wavelength of 520 nm. […] In brief, human or mouse Tie2/Fc chimera (R&D Systems, Minneapolis, Minn., USA) are immobilized at 2 μg/mL overnight at 4° C. in a 96-well MaxiSorp plate (Nunc, Wiesbaden, Germany). Wells are blocked with a 1% casein solution. […] This mixture is added to the Tie2/Fc coated well and incubated for 2 hours at room temperature. Residual binding of Ang is detected using HRP-conjugated anti-FLAG M2 antibody (Sigma, St Louis, Mo., USA).

For assay [2], the target named is T1, FLAG-tagged recombinant human Ang1 …. Kind of assay: ratio of IC50 in hAng1/hTie2 ELISA to IC50 in hAng2/hTie2 ELISA. The protocol: In brief, 2 μg/mL of Tie2/Fc chimera (R&D Systems, Minneapolis, Minn., USA) is coated in a 96-well MaxiSorp plate (Nunc, Wiesbaden, Germany).
In brief, 2 μg/mL of recombinant human Tie2-Fc (R&D Systems, Minneapolis, Minn., USA) is coated overnight at 4° C. in a 96-well MaxiSorp plate (Nunc, Wiesbaden, Germany). Coated wells are blocked with a 1% casein solution.
In general terms: ELISA stands for enzyme-linked immunosorbent assay.

Assay [3] addresses T2, N-terminally FLAG-tagged mouse Ang2 (HEK293T conditioned medium) (mouse, UniProt O35608 19-496).
T2 construct: may be a nucleotide entry; also called mAng2; FLAG-mAng2
T2 sequence: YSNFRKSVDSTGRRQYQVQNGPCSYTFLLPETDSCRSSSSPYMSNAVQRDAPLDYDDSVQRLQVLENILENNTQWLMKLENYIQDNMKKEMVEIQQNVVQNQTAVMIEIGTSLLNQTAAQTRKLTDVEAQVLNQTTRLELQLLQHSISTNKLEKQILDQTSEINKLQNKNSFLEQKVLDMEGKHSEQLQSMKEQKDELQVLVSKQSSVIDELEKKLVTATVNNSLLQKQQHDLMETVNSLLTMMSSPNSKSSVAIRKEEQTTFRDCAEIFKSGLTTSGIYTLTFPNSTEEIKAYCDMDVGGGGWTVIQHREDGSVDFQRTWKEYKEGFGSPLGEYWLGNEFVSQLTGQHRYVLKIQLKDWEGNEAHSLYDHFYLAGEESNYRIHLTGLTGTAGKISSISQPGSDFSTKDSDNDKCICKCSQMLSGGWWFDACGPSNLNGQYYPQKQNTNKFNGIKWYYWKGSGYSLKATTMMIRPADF
Nature of the assay: competition ELISA, FLAG-mAng2 on coated mTie2-Fc. The procedure: (§2) In brief, 2 μg/mL of recombinant mouse Tie2-Fc or cyno Tie2-Fc is coated overnight at 4° C. in a 96-well MaxiSorp plate (Nunc, Wiesbaden, Germany). Coated wells are blocked with a 1% casein solution.

Assay [4] addresses T2, N-terminally FLAG-tagged mouse Ang2 …. Kind of assay: competition ELISA, periplasmic extract, FLAG-mAng2 on mTie2/Fc. The procedure: as §1
The target of assay [5] is T3, N-terminally FLAG-tagged cynomolgus Ang2 (HEK293T conditioned medium) (cynomolgus, UniProt O15123 19-496 (human entry), limits assumed).
T3 construct: may be a nucleotide entry; also called cAng2; FLAG-cAng2
T3 chain: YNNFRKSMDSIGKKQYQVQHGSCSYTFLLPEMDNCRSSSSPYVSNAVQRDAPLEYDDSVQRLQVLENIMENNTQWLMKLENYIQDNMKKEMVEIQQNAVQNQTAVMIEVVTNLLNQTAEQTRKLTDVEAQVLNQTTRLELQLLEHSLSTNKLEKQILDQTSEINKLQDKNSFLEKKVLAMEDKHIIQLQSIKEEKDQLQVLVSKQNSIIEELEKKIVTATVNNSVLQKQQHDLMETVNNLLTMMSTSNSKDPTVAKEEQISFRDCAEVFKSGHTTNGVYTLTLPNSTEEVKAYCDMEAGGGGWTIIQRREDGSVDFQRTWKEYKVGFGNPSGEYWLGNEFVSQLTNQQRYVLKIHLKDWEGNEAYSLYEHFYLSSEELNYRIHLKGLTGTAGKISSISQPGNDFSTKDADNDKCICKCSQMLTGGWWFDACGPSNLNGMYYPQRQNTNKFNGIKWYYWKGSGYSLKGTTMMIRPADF
Kind of assay: competition ELISA, FLAG-cAng2 on coated cTie2-Fc. The procedure:
as §2

Assay [6] deals with T4, recombinant mouse Ang2-FLD (mouse, UniProt O35608 275-496, limits assumed).
T4 construct: domain: FLD
T4 sequence (looked up): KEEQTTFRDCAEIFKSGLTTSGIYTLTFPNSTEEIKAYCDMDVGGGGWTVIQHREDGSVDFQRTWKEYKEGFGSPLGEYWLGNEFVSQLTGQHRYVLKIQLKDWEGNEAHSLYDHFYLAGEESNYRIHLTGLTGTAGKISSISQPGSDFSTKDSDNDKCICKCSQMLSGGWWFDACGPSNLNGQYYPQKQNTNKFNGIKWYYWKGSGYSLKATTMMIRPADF
Kind of assay: SPR (Biacore T100), binder on CM5 chip, Ang2-FLD as analyte. Put shortly:
(§3)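 Binders were immobilized by amine coupling onto a CM5 sensor chip, and Ang2-FLD from each species was passed over as analyte at 45 μL/min, with 2 min association and 20 min dissociation. Surfaces were regenerated between injections using a 10 sec 25 mM NaOH pulse and 60 sec stabilization. Rate constants came from a 1:1 Langmuir fit, and KD was derived from them.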

Assay [7] deals with T5, recombinant human Ang2-FLD (human, UniProt O15123 275-496, limits assumed).
T5 construct: domain: FLD; not used
T5 sequence (looked up): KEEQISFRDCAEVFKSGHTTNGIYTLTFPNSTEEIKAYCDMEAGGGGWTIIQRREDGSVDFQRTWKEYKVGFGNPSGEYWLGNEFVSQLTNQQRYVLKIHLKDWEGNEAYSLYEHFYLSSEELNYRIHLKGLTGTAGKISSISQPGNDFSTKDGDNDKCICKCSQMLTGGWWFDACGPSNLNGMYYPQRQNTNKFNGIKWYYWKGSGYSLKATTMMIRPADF
The assay is described as above. Put shortly: as §3

Assay [8] addresses T6, recombinant cynomolgus Ang2-FLD (cynomolgus).
T6 construct: domain: FLD; also called cyno Ang2-FLD
The assay is described as above. Summed up: as §3

Assay [9] concerns the target T5, recombinant human Ang2-FLD. Kind of assay: ProteOn off-rate assay, periplasmic extracts over coated human Ang2-FLD. The protocol:
In a first cycle, amino acid substitutions are introduced randomly in both framework (FW) and complementary determining regions (CDR) using the error-prone PCR method. […] After a polish step, PCR products are inserted via unique restriction sites into a vector designed to facilitate phage display of the VHH library. […] Periplasmic extract of affinity matured clones is diluted 1:10 and injected across the “analyte channels” A1-A6.

Assay [10] deals with T7, FLAG-tagged mouse Ang2 (mouse, UniProt O35608 19-496).
T7 construct: N-terminally FLAG-tagged, conditioned medium of HEK293T cells; also called mAng2; FLAG-mAng2
T7 sequence: T2 sequence
Kind of assay: competition ELISA: FLAG-mAng2 binding to coated mTie2-Fc. The protocol:
as §2

In assay [11] the target is T7, FLAG-tagged mouse Ang2. The description is as above. The protocol:
as §2
This is another data set of the same source.

The target in assay [12] is T8, FLAG-tagged cynomolgus Ang2 (cynomolgus, UniProt O15123 19-496 (human entry), limits assumed).
T8 construct: N-terminally FLAG-tagged, conditioned medium of HEK293T cells; also called cAng2; FLAG-cAng2
T8 chain: T3 chain
Nature of the assay: competition ELISA: FLAG-cAng2 binding to coated cTie2-Fc. The procedure: as §2

Assay [13] has as its target T8, FLAG-tagged cynomolgus Ang2. The description is as above.
The target of assay [14] is T7, FLAG-tagged mouse Ang2. Nature of the assay: competition ELISA: FLAG-mAng2 binding to coated mTie2-Fc. The protocol:
as §2
This is another data set of the same source.

The target in assay [15] is T8, FLAG-tagged cynomolgus Ang2. Nature of the assay: competition ELISA: FLAG-cAng2 binding to coated cTie2-Fc. The procedure:
as §2

Changes are numbered by the printed parent chain. Names and notes keep the numbering of the source. Read-outs that look alike come from different tables or passages of the source.

B1: VHH 25B01 (VHH)
VHH: EVQLVESGGGLVQAGGSLRLSCAASGFTFDDYAIGWFRQAPGKEREGVSCISSSDGSTYYADSVKGRFTISSDNAKNTVYLQMNSLKPEDTAVYYCAAAWGASRLPIGTMPPYEYDYWGQGTQVTVSS
notes: Tested as periplasmic extract; also called 025B01; not shown: C-terminal c-myc tag and His6 tag
Regarding B1, in assay [1], the “% inh” value stood at 4%.

B2: VHH 28D10 (VHH)
VHH: EVQLVESGGGLVQAGGSLRLSCAASGFTLDDYAIGWFRQAPGKEREGVSCIRDSDGSTYYADSVKGRFTISSDNDKNTVYLQMNSLKPEDTAVYYCAAVPAGRLRFGEQWYPLYEYDAWGQGTQVTVSS
notes: also called 028D10; not shown: C-terminal c-myc tag and His6 tag
The term IC50 denotes the concentration that gives 50% inhibition. What is called Kd is a measure of binding affinity in units of concentration. In general, koff refers to the first-order rate constant of dissociation. As usually defined, the kon is a measure of how fast the partners come together. As for B2, the “% inh” value was determined as 4% in assay [1] and 93% in assay [4]. In addition, the hAng1/hAng2 ratio in assay [2] was greater than 3080. The IC50 in assay [3] turned out to be 6.1 nM; in [5] it was 2 nM. Besides, the equilibrium dissociation constant (Kd) is 5.6 nM in assay [6], 1.3 nM in [7] and 1.4 nM in assay [8]. For the same molecule, the values for the koff in assay [6], in [7] and in assay [8] were 0.011 s⁻¹, 0.0062 s⁻¹ and 0.025 s⁻¹, respectively. For the same molecule, the values for the kon in assay [6], in assay [7] and in [8] were 1.9e+06 M⁻¹ s⁻¹, 4.9e+06 M⁻¹ s⁻¹ and 1.8e+07 M⁻¹ s⁻¹, respectively.

B3: variant(s) of VHH 00027 carrying F27L and L100iI (VHH)
VHH: B2 VHH with F27L, C50S, S54N, L113I, Q124L
notes: also called L100il
For B3, the “fold improvement (off-rate against VHH 00027)” value in [9] turned out to be 9.4 fold.

B4: VHH 00908 (VHH, not shown: small tags and cut ends)
VHH: B2 VHH with A14P, F27I, C50S, S54N, D55G, D75S, K87R, F106Y, L113I, Q124L
As for B4, the IC50 in assay [10] is 0.085 nM; in assay [11] it was 0.085 nM; in assay [12] it was 0.079 nM; in assay [13], 0.079 nM.

B5: VHH 00042 (VHH, not shown: small tags and cut ends)
VHH: B2 VHH with A14P, C50S, S54N, D75S, K87R, Q124L
As for B5, the IC50 is 1.91 nM in [11], 0.753 nM in assay [13], 1.9 nM in assay [14] and 0.8 nM in assay [15].

B6: variant(s) of VHH 00027 carrying A24V (VHH, name in Kabat numbering)
VHH: B2 VHH with A24V, C50S, S54N, Q124L
notes: not shown: C-terminal c-myc tag and His6 tag
For the molecule B6, the “fold improvement (off-rate against VHH 00027)” value in assay [9] stood at 2 fold.

B7: VHH 00027 (VHH, not shown: small tags and cut ends)
VHH: B2 VHH with C50S, S54N, Q124L
notes: Variant of 28D10 carrying C50S/S53N and Q108L
In the case of B7, the IC50 was determined as 1.98 nM in assay [10]; 1.98 nM in assay [11]; 0.728 nM in assay [12]; 0.728 nM in assay [13]; 2 nM in assay [14]; 0.7 nM in [15].

B8: VHH 12A08 (VHH)
VHH: EVQLVESGRGLVQAGGSLRLSCAASGSIFSINAMLWYRQAPGKQRELVAAITSGGSTNYADSVKGRFTISRDNAKNTVYLQMNSLKPEDTAVYYCAADSDYSSDYYYWGQGTQVTVSS
notes: Tested as periplasmic extract; also called 012A08; not shown: C-terminal c-myc tag and His6 tag
For B8, the “% inh” value in [1] worked out at 3%.

B9: VHH 1E01 (VHH)
VHH: EVQLVESGGGLVQPGGSLRLSCVHSGTISSTHAMGWYRQAPGKQREHVATFTNRGSTYYAGSVKGRFTISRDNAKNTMYLQMNSLKPEDTAVYYCNTGPYWGQGTQVTVSS
notes: Tested as periplasmic extract; also called 001E01; not shown: C-terminal c-myc tag and His6 tag
As for B9, the “% inh” value in [1] came to 4%.
